Data from article PMC2747274 (2009).

Columns and labels:
Assay in all cases: FP
[1] = biological target: fluorescently labeled histone H3 tail peptide, monomethylated at K27 (UniProt P68431, monomethyl-lysine at K27; fluorescent label (position not given))
[2] = biological target: fluorescently labeled histone H3 tail peptide, dimethylated at K9 (UniProt P68431, dimethyl-lysine at K9; fluorescent label (position not given))
[3] = biological target: fluorescently labeled histone H4 tail peptide, dimethylated at K20 (UniProt P62805, dimethyl-lysine at K20; fluorescent label (position not given))
[4] = biological target: fluorescently labeled histone H3 tail peptide, dimethylated at K4 (UniProt P68431, dimethyl-lysine at K4; fluorescent label (position not given))
[5] = biological target: fluorescently labeled histone H3 tail peptide, monomethylated at K9 (UniProt P68431, monomethyl-lysine at K9; fluorescent label (position not given))
[6] = biological target: fluorescently labeled histone H3 tail peptide, monomethylated at K4 (UniProt P68431, monomethyl-lysine at K4; fluorescent label (position not given))
[7] = biological target: fluorescently labeled histone H4 tail peptide, trimethylated at K20 (UniProt P62805, trimethyl-lysine at K20; fluorescent label (position not given))
[8] = biological target: fluorescently labeled histone H4 tail peptide, K20 unmodified (UniProt P62805, fluorescent label (position not given))
[9] = biological target: fluorescently labeled histone H4 tail peptide, monomethylated at K20 (UniProt P62805, monomethyl-lysine at K20; fluorescent label (position not given))
[10] = biological target: fluorescently labeled histone H3 tail peptide, dimethylated at K27 (UniProt P68431, dimethyl-lysine at K27; fluorescent label (position not given))

B1: human MBTD1 (Malignant Brain Tumor domain-containing protein 1) fragment composed of all four MBT repeats (residues 130-566) (domain or fragment)
chain: AKTKAAVSMEGFSWGNYINSNSFIAAPVTCFKHAPMGTCWGDISENVRVEVPNTDCSLPTKVFWIAGIVKLAGYNALLRYEGFENDSGLDFWCNICGSDIHPVGWCAASGKPLVPPRTIQHKYTNWKAFLVKRLTGAKTLPPDFSQKVSESMQYPFKPCMRVEVVDKRHLCRTRVAVVESVIGGRLRLVYEESEDRTDDFWCHMHSPLIHHIGWSRSIGHRFKRSDITKKQDGHFDTPPHLFAKVKEVDQSGEWFKEGMKLEAIDPLNLSTICVATIRKVLADGFLMIGIDGSEAADGSDWFCYHATSPSIFPVGFCEINMIELTPPRGYTKLPFKWFDYLRETGSIAAPVKLFNKDVPNHGFRVGMKLEAVDLMEPRLICVATVTRIIHRLLRIHFDGWEEEYDQWVDCESPDLYPVGWCQLTGYQLQPPASQSSR
How did the Kd [1] turn out when B1 was run?
Its Kd is 244 µM.

What about the Kd [2] of the same binder?
The Kd was 550 µM.

And the Kd [3]?
Its Kd is 13 µM.

What about the Kd [4] of the same binder?
The Kd was 145 µM.

And the Kd [5]?
Its Kd is 152 µM.

What about the Kd [6] of the same binder?
The Kd was 126 µM.

And the Kd [7]?
The Kd was 680 µM.

What about the Kd [8] of the same binder?
Its Kd is 480 µM.

What about the Kd [9] of the same binder?
Its Kd is 7 µM.

What about the Kd [10] of the same binder?
Its Kd is 185 µM.
